Measured values taken from the nanobody polyreactivity screen of Harvey et al. (2022).

Test: yeast display, Sf9 membrane polyspecificity reagent, FACS + sequencing; frameworks hold sequencing errors
Procedure, shortened: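 Galactose induction of a Saccharomyces cerevisiae BJ5465 synthetic nanobody display library ran 36–48 hours. The cells were then stained for 1 hour at 4 °C with 10% biotinylated, detergent-solubilized Sf9 membrane reagent, pulled down on streptavidin microbeads and FACS-sorted into low and high (top ~1%) gates on expression and reagent-binding fluorescence. Labels for polyreactivity follow the gate of origin.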

Sequence	polyreactivity (PSR sort gate)
QVQLVESGGGLGQAGGSLRLSSAASGRTVSTNDMGWYRHAPGKERELVAAIDFDSDSTYYADSVKGRFTISRDNAKNTVYLQMHSLKPEDTAVYYCAAQYFSYGESYEYWGQGTHVTVSS	low polyreactivity
QVQLVESGGGLVEAGGSLRLSCAASASISGRYAMGSYRQAPGKERELVAAISWIGGSTYYADSVKGRFTISRDNAKNTVYLQMNSLKPEDTAVYYCNVTIDTRTHPLLVVFYGYDYWGQGTQVTVSS	low polyreactivity
QVQLVESGGGLVQAGGSLRLICAASGNTFTGYVMGWNRQAPGKEREYVAAIRSGGSTYYADSVKGRFTISRDNAKNTVYLQMNSLKPEDTSVYYCAKCVTPYRTSAYGYWGQGTQVTVSS	high polyreactivity
QVQLVESGGGLVQAGGSLRLSCAASGTFKWYAMGWYRQAPGKERELVAVISSSGGTTSYADSVKGRFTITRDNAKNTVYLQMNSLKPEDTAVYYCNRVWSTSMDYWGQGTQVTVSS	high polyreactivity
QVQLVESGGGLVQAGGSLRLSCAASGSNFSYNAMGWYRQAPGKERELVATITTGGRTSYADSVKGRFTISRDNAKNTVYLQMNSLKPEDTAVYYCAAVGRFSSRPRVVYYGYDYWGQGTQVTVSS	low polyreactivity
QVQLVESGGGLVQSGGSLRLSCAASGFIFEAYAMGWYRQAPGKEMELVAAISSGGSTKYADSVKGRFTISRDNAKNSVYLQMNSLKPEDTAVYYCAKSSWTYGAYNYLGQGTQVTVSS	high polyreactivity
QVQLVESGGGLVQAGGSLRLSCAASGRIFKFYAMGWYRQAPGKERELVAGITTSGGSTYYADSVKGRFTISRDNAKNTVYLQMNSLKPEDTAVYYCAASRHFARHRGYYFRYDYWGQGTQVTVSS	high polyreactivity
QVQLVESGGGLVQAGGSLRLSCAASGSTFSSYAMGWYRPAPGKERELVARITSGGSTYYADSVKGRFTISRDNAKNTVYLQMNSLKPEDTAVYYCAARGYYYRSRVSQFKYDYWGQGTQVTVSS	high polyreactivity
QVQLVESGGGLVQAGGSLRLSCAASGFNYYRYVMVWYRQAPGKERELVAAITTSGGSTYYADSVKGRFTISRDNAKNTVYLQMNSLKPEDTAVYYCAAVYIPSRQWYDYWGQGTQVTVSS	high polyreactivity
QVQLVESGGGLVQAGGSLRLSCAASGLIFLAYTMGWYRLAPGKVRELVAAISYSDGSTYYADSVKARFTISRDNANNTVYVQMNSLKPEDTAVYYCAARPRPPLRSYDYWGQGTQVTVSA	low polyreactivity
QVQLVESGGGLVQAGGSLRLSCAASGSTFPVYAMGWYIQAPGKERELVAAISYSGTRTYYADSVKGRFTISRDNAKNTVYLQMNSLKPEDTAVYYCAADFEGYGQGYGYWGQGTQVTVSS	low polyreactivity
QVQLVESGGGLVQAGGSLRLSCAASGRTFRWYAMGWYRPAPAKERELVAAISSRGGSTYYADSVKGRFTISRDNAKNTVFLQMNSLKPEDTAVYYCAAVDNWLTLSDYDYWGQGTQVTVSS	low polyreactivity
QVQLVESGGGLVQAGGSLRLSCAASGGTITSYAMGWYRQAPGKERELVAAITRSGGSTYYADSVKGRFTISRDNAKNTVYLQMNSLKPEDTAVYYCAARYSTYPWYNSWGQGTQVTVSS	high polyreactivity
QVQLVESGGGLVQAGGSLRLSCAASGRIFVVYTMRWYRQAPGNERELVASIRGSGDSTNYADSVKGRFTISRDNAKNTVYLQMNSLKPEDTAVYYCAADLPWSRRYSYRYGYWGQGTQVTVSS	low polyreactivity
QVQLVESGGGLVQAGGSLRLSCAASGLTFGRNAMGWYRQAPWKERELVAAISRSGGRTSYADSVKGRFTISRDNAKNTVYLQMNSLKPEDTAVYYCAARSDVYTHDYWGQGTQVTVSS	high polyreactivity
QVQLVESGGGLVQAGGSLRLSCAASGRTIRVNAMGWYRQAPRKERELVAAISRSTGDTYYADSVKGRFTNSRDNAKNTVYLQMHSLKPEDTAVYYCAADVPGGEGDYAYEYWGQGTQVNVSS	low polyreactivity

Sequence	polyreactivity (PSR sort gate)
QVQLVESGGGLVQAGGSLRLSCAASGFTFSSYAMGWYRQAPGKERELVAAITWGGGRTYYADSVKGRFTISRDNAKNTVYLQINSLKPEDTAVYYCNVPQWVSIWRKNNYWGLGTQVTVSS	high polyreactivity
QVQLVESGGGLVQAGGSLRLSCAASGRIFQDYAMGWYRQPPGKERELVAAISSSGVRTYYADSVKGRFTISRDNAKNTVYVQMNSLKPEDTAVYYCATGYIFRYRQSAYVYWGQGTQVTVSS	high polyreactivity
QVHLVESGGGLVQAGGSLRLSCAASGILRLNAMGWYRQAPGKEREFVATISRSGGITYYADSVKGRFTISRDNAKNTVYLQMNSLKPEDTAVYYCAKGGYSLYGYWGQGTQVTVSS	high polyreactivity
QVQLVESGGGLVQAGGSLRLSCAASGRIFPYYAMGWSRQAPGKEREFVAAITKRGGSTSYADSVKGRFTISRDNAKNTVYLQMNSLKPQDTAVYYCNARLYRGQDRYDYWGQGTQVTVSS	low polyreactivity
QVQLVESGGGLVQAGGSLRLSCAASGSTYYLYAMGWYRQAPGKERELVAVITWSDGSTYYADSVKGRFTISRDNAKNTVYFQMNSLKPEDTAVSYCAKDLDSGGRGYYWGQGTQVTVSS	low polyreactivity
QVQLVESGGGLVQAGGSLRLSCAASGRIFQDYAMGWYRQAPGKERELVAAITWSGGRTYYADSVKGRFTISRDNAKNTVYLQMNSLKPEDTAVYYCNRLTQSRLYYGPREYYYWGQGTQVTVSS	high polyreactivity
QVQLVESGGGLVQAGGSLRLSCAASGRIFIQYGMVWYRQAPGKERELVAAIRSGDSTNYADSVKGRFTISRDNAKNTVYLQMNSLKPEDTSVYYCARDRPGDYAGYDYWGQGTQVTVSS	low polyreactivity
QVQLVESGGGLVQAGGSRRLSCAASGLIFYYYAMGWYRQAPGKERELVAAISGSGGSTYYADSVKGRFTISRDNAKNTVYLQMNSLKPEDTAVYYCNKLSWRKYLGYEYWGQGTQVTVSS	high polyreactivity
QVQLVESGGGLVQAGGSLRLSCAASGFIFGKYAMGWYRQAPGKERELVAAITSDGRTYYADSVKGRFTISRDNAKNTVYLEMNSLKPEDTAVYYCAVDYYWYWYSGYDDYWGQGTQVTVSS	high polyreactivity
QVQLVESGGGLVQAGGSLRLSCAASGSIFDLYAMGWYRQAPGTERELVADISIADSTNYADSVKGRFTISRDNAKNTVYLQMNSLKPEDTAVYYCNADVWWYSYEYDYWGQGTQVTVSS	low polyreactivity
QVQRVESGGGLGQAGGILLLSCAASGFTFKWYSMGWYRQARGKERELVAGISRRGGTTNYADSFKGRFTISRHNAKNTVNLQINSLKPEDPPVYYCAAESQLTKYYYWGQGTQVTVSS	high polyreactivity
QVQLVESGGGLVQEGGSLRLSSAASGRTFGTNPMGWYRQAPGKERELVAAISTRDGSTYYADSVKGRFSISRDNAKNTVYLQMNSLKPEDTAVYYCNAVVRYYDWGYLDYDYWGQGTQVTVSS	low polyreactivity
QVQLVESGGGLVQAGGSLRLSCAASGFIFVYGNVMGWYRQAPGKERDLVASITSDGGSTNYADSVKGRFTISRDNAKNTVYLQMNSLKPEDTAVYYCNADVPRGFGGEYDYWGQGTQVTVSS	low polyreactivity
QVQLVESGGGLVQAGGSLRLSCAASGITFGLYAMGWYRQAPGKEREFVAAISRRGGSTSYADSVKGRFTISRDNAKNTVYLQMNSLKPEDTAVYYCDTSYRRTVGGYTYYWGQGTQVTVSS	high polyreactivity
QVQLVESGGGLVQAGGSLRLTCAASGSIFSLNVMGRYRQAPGKERELVATIRGRGTSTYYADSVKGRFTISRYNAKINVYLHMNSLKPEDTAVYYWAARGHGAYGYWGQGTQVTVSS	low polyreactivity
QVQLVESGGGLVQAGGSLRLSCAASGRTFGPYEMGWYTQAPGKERELVASISSADSTYYADSVKGRFTISRDNAKNTVYLQMYSLKPEDTAVYYCAAPSVGYYDPTDFDYWGQGTQVTVSS	low polyreactivity
